Data on 18 molecules can be found in patent publication US20250122301A1 (IBIO, published 2025).

B1: AH05214 (human IgG1 reformatted) (antibody, V domains shown)
VH: QIQLQQPGAELVKPGASVKLPCKASGYTFTSYWMHWVKQRPGQGLEWIGEINPSNGRTNYNEKFKSKATLTVDKSSSTAYMQLSSLTSEDSAVYYCARQLAAYWGQGTTVTVSS
VL: DILLTQSPALMAASPGEKVTITCSVSSSISSSNLHWYQQKSETSPKPWIYGTSNLASGVPVRFSGSGSGTSYSLTISSMEAEDAATYYCQQWSSYPLTFGGGTKLEIK
B2: AH05268 (human IgG1 reformatted) (antibody, V domains shown)
VH: QVQLQQSGAELVRPGVSLKISCKGSGYTFTDYAMHWVRQSHAKSLEWIGVISTYSGDALYNQKFKGKATMTVDKSSSTAYLELARLTSDDSAIYYCARGVTFDYWGQGTTLTVSS
VL: DVQMTQSPSSMYASLGERVTFTCKASQDINRYLSWFQQKPGKSPKTLIYRANRLVDGVPSRFSGSGSGQNYSLTISSLEYEDMGIYYCLQYDEFPYTFGGGTKLEIK
B3: AH05258 (human IgG1 reformatted) (antibody, V domains shown)
VH: QIQLQQSGAELVRPGVSVKISCKGSGYTFTDYAMHWVKQSHAKSLEWIGVISTYSGDVSYNQKFKGKATMTVDKSSSTAYMELARLTSEDSAIYYCARGVTFDSWGQGTTLTVSS
VL: DIVMTQSHKFMSTSVGDRVSITCKASQDVSTAVAWYQQKPGQSPKLLIYSASYRYTGVPDRFTGSGSGTDFTFTISSVQAEDLAVYYCQQHYSTPFTFGSGTKLEIK
B4: D34 (human IgG1 reformatted) (antibody, V domains shown)
VH: QVQLQQSGAELVRPGVSVKISCKGSGYTFTDYAMHWVKQSHAKSLEWIGVISTYSGDVSYNQKFKGKATMTVDKSSSTAYMELARLTSEDSAIYYCARGVTFDSWGQGTTVTVSS
VL: DIQMTQSPASLSASVGETVTITCRASENSYSYLEWYQQKQGKSPQLLVYNAKTLAEGVPSRFSGSGSGTQFSLKINSLQPEDFGTYYCQHHYGTPYTFGGGTKLEIK
B5: AH05271 (human IgG1 reformatted) (antibody, V domains shown)
VH: QVQLQQSGAELVRPGVSVKISCKGSGYTFTDYAMHWVKQSHAKSLEWIGVISTYSGDVSYNQKFKGKATMTVDKSSSTAYMELARLTSEDSATYYCARGVTFDSWGQGTTLTVSS
VL: DIQMTQTPASLAASVGETVTITCRASENIYFSLAWYQQKQGKSPQLLIYNANTLEDGVPSRFSGSGSGTQFSMKINNMQPEDTATYFCKQAYDVPWTFGGGTKLEIK
B6: D11 (human IgG1 reformatted) (antibody, V domains shown)
VH: QIQLQQPGAELVRPGVSLKISCKGSGYTFTDYAMHWVRQSHAKSLEWIGVISTYSGDAIYNQKFKGKATMTVDKSSSTAYLELARLTSDDSAIYYCARGVTFDYWGQGTTVTVSS
VL: DIQMTQTTSSLSASLGDRVTITCRASQDISNYLEWYQQKQGKSPQLLVYNAKTLAEGVPSRFSGSGSGTQFSLKINSLQPEDFGSYYCQHHYDTPYTFGGGTKLEIK
B7: 7G7B6 (antibody, V domains shown)
VH: EVQLVESGGDLVQPRGSLKLSCAASGFTFSSYGMSWVRQTPDKRLELVATINGYGDTTYYPDSVKGRFTISRDNAKNTLYLQMSSLKSEDTAMYFCARDRDYGNSYYYALDYWGQGTSVTVSS
VL: QIVLSQSPAILSASPGERVTMTCRASSSVSFMHWLQQKPGSSPKPWIYATSNLASGVSARFSGSGSGTSYSLTITRVEAEDAATYYCQQWSSNPPAFGGGTKLEIK
B8: AH05251 (human IgG1 reformatted) (antibody, V domains shown)
VH: EVRLQQSGAELVRSGASVKLSCTASGFNIKDYYIHWVKQRPEQGLEWIGWIDPDNGETEYAPKFQGKATMTADTSSNTAHLQLSSLTSEDTAVYYCTVFWYGNNYAGFAYWGQGTLVTVSS
VL: DVVMTQTPLSLPVNLGDQASISCRSSQSIVHSNGNTYLEWYLQKPGQSPKLLIYKVSNRFSGVPDRFSGSGSGTDFTLKISRVEAEDLGIYYCFQGSHVPPTFGGGTKLEIK
B9: BP003-T2P1D7 (human IgG1 reformatted) (antibody, V domains shown)
VH: QAYLQQSGAELVRSGASVKLSCTASGFNIKDYYIHWVKQRPEQGLEWIGWIDPDNGETEYAPKFQGKATMTADTSSNTAHLQLSSLTSEDTAVYYCTVFWYGNNYAGFAYWGQGTLVTVSA
VL: DVVLTQTPLSLPVSLGDQASISCRSSQSIVHSNGNTYLEWYLQKPGQSPKLLIYKVSNRFSGVPDRFSGSGSGTDFTLKISKVEAEDLGVYYCFQGSHVPPTFGGGTKLEIK
B10: AH05247 (human IgG1 reformatted) (antibody, V domains shown)
VH: QVQLQQSGADLMKPGASVKMSCRASGYTFSNYWIEWIKQRPGHGLEWIGEILPGSGFTNYNENFKGKATFTADTSSNTTYMLLSSLSSEDSAVYYCARGGTSVVHFDSWGQGTTLTVSS
VL: DIVMTQSQKFMSTSVGDRVSVTCKASQNVGTNVAWYQQKPGQSPKALIYSASYRYSGVPDRFTGSGSGTDFTLTISNVQSEDLAEYFCQQYNSYPLTFGGGTKLEIK
B11: AH05249 (human IgG1 reformatted) (antibody, V domains shown)
VH: QVQLQQSGADLMKPGASVKMSCRASGYTFSNYWIEWIKQRPGHGLEWIGEILPGSGFTNYNENFKGKATFTADTSSNTTYMLLSSLSSEDSAVYYCARGGTSVVHFDSWGQGTTLTVSS
VL: DIVMTQTPKFLLVSAGDRVTITCKASQSVNNDVVWYQQKPGQSPKLLIYYASNRYTGVPDRFTGSGYGTDFTFTISTVQAEDLAVYFCQQDYRSPYTFGGGTKLEIK
B12: AH05280 (human IgG1 reformatted) (antibody, V domains shown)
VH: EVRLQQSGADLMKPGASVKISCKTSGYTFSNYWTEWIKQRPGHGLEWIGEILPGSGFTNYNENFKGKATFTADTSSNTTYMQLSSLTSEDSAVYYCARGGTSVVHFDYWGQGTSLTVSS
VL: DIVMTQTPKFLLVSAGDRVTITCKASQSVNNDVLWYQQKPGQSPKLLIYYASNRYTGVPDRFTGSGYGTDFTFTISTVQAEDLAVYFCQQAYWSPYTFGGGTKLEIK
B13: AH04509 (human IgG1 reformatted) (antibody, V domains shown)
VH: QIQLQQSGAELVRPGTSVKMSCKAAGYTFTNYWIGWVKQRPGHGLEWIGDFYPGGDYINYNEKFKGKATLTADTSSSTAYMQLSSLTSEDSAIYYCTSRNFAYWGQGTPVTVSS
VL: DTTVTQSQRFMSTSVGDRVSVTCKASQNVGTNVAWYQQKPGQSPKPLIYSASYRYSGVPDRFTGSGSGTDFTLTINNVQSEDLAEYFCQQYNNSPLTFGGGTKLEIK
notes: also called AH4509
B14: BP003-T2P1E3 (human IgG1 reformatted) (antibody, V domains shown)
VH: QIQLQQSGAELVRPGTSVKMSCKAAGYTFTNYWIGWVKQRPGHGLEWIGDIHPGGGYTNYNEKFKGKATLTADTSSSTAYMQLSSLTSEDSAIYYCTSRNFAYWGQGTPVTVSS
VL: DIVLTQSQKFMSTSVGDRVSVTCKASQNVGTNVAWYQQKPGQSPKALIYSASYRYSGVPDRFTGSGSGTDFTLTISNVQSEDLAEYFCQQYNSYPYTFGGGTKLEIK
B15: AH05286 (human IgG1 reformatted) (antibody, V domains shown)
VH: QVQLKQSGADLMKPGASVKISCKASGYTFSNYWIEWIKQRPGHGLEWIGEILPGSGYTNYNENFKGKATFTADTSSNTTYIQLSSLSSEDSAVYYCARGGTSFVHFDYWGQGTTLTVSS
VL: DIVLTQSPPTLSLSPGERVTLSCKASQDVNTAVAWYQQKPGQAPRLLIYWASTRHTGVPSRFSGSGSGTDFTLTISSLQPEDFATYYCQQHYSSPWTFGGGTKLEIK
B16: AH04750 (human IgG1 reformatted) (antibody, V domains shown)
VH: QVQLQQPGAEMAKPGASVKMSCKASGYTSTAYWIHWVKQRPGQGLEWIGYITPSTGYTEYNQKFEDKATLTADKSSNTAYMQLNSLTSEDSAVYYCARGGYFDYWGQGTTVTVSS
VL: DIQMTQTTSSLSASLGDRVTISCRASQDISNYLNWYQQKPDGTVKLLIYYTSRLHSGVPSRFSGSGSGTDYSLTISNLEQEDIATYFCQQGNTLPPTFGGGTKLEMK
B17: AH05257 (human IgG1 reformatted) (antibody, V domains shown)
VH: QVQLQQSGAELVRPGVSLKISCKGSGYTFTDYAMHWVRQSHAKSLEWIGVISTYSGDAIYNQKFKGKATMTVDKSSSTAYLELARLTSEDSAIYYCARGVTFDYWGQGTTLTVSA
VL: DIVMTQSTSSLSASLGDRVTISCRASQDISNYLSWYQQKPDGTIKLLIYYTSRLHSGVSSRFSGSGSGTDYSLTISNLEQEDFATYFCQQGHTLPPTFGGGTKLEIK
B18: AH04734 (human IgG1 reformatted) (antibody, V domains shown)
VH: QVQLQQPAAELARPGASVKMSCKASGYTFTTSTMHWVKQRPGQGLEWIGYINPRSGYTEYNQKFKDKTTLTADKSSSTAYMQLSSLTSEDSAVYYCARHYYFDYWGQGTTVTVSS
VL: DIQMTQSTSSLSASLGDRVTISCRASQDIRNYLNWYQQKPDGTVKLLIYYTSRLHSGVPSRFSGSGSGTDYSLTISNLEQEDIATYFCQQGNTLPPTSGGGTKLEIK

The first experiment addresses T1, CD25 on CD25+ cells (SUDHL-1, HEK IL-2 reporter cells, primary human regulatory T cells) (human, UniProt P01589 22-272).
T1 construct: whole, on cells; also called IL-2Ralpha
T1 sequence (looked up): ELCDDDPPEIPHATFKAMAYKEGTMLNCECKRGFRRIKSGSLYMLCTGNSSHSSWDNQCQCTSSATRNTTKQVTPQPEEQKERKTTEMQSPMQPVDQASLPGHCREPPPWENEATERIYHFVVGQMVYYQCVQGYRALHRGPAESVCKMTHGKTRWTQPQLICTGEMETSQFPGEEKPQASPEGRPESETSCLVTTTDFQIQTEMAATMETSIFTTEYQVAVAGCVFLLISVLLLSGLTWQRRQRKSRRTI
The experiment can be described thus: flow cytometry, dose response on CD25+ SUDHL-1 cells.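 Also: antibody binding to cells read as median fluorescence intensity of an AF647 anti-human Fc secondary, DAPI+ dead cells excluded, 20 min on ice, 5-fold dilutions from 10 ug/mL.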 Background: Flow cytometry measures light scatter and fluorescence of single cells or particles in a stream.
The molecule B1 had a concentration giving a half-maximal response (EC50) of around 51.1 µg/mL.

Molecule B2 showed an EC50 of 0.108 µg/mL.

With B3, the concentration for a half-maximal effect (EC50) worked out at 0.184 µg/mL.

In the case of B4, a half-maximal effect (EC50) was put at 1.1 µg/mL.

B5: the response was half-maximal at 0.25 µg/mL (EC50).

B6 had an EC50 of 2.12 µg/mL.

B7 came in with a 50% effective concentration (EC50) of 0.903 µg/mL.

B8 returned an EC50 of 0.132 µg/mL.

Take B9: the EC50 came to 0.125 µg/mL.

B10 came in with a concentration giving a half-maximal response (EC50) of 0.0977 µg/mL.

For B11, the concentration giving a half-maximal response (EC50) was found to be 0.897 µg/mL.

B12 had a half-maximal effective concentration (EC50) of 0.387 µg/mL.

In turn, B13 had an EC50 of 0.121 µg/mL.

With B14, the EC50 was determined as 0.125 µg/mL.

B15 gave a concentration for a half-maximal effect (EC50) of 0.777 µg/mL.

Regarding B16, the concentration giving a half-maximal response (EC50) was 0.107 µg/mL.

Molecule B17 had a concentration giving a half-maximal response (EC50) of 0.113 µg/mL.

Regarding B18, it took 1.91 µg/mL to reach a half-maximal effect (EC50).

The target of another experiment is T1, CD25 on CD25+ cells (SUDHL-1, HEK IL-2 …). The experiment can be described thus: cell-based or functional assay.
For B7, the “pSTAT5 IC50 (1 ug/mL) [ng/ml]” value came to 0.963 ng/ml, the “pSTAT5 IC50 (2 ug/mL) [ng/ml]” value was found to be 0.906 ng/ml and the “pSTAT5 IC50 (5 ug/mL) [ng/ml]” value turned out to be 1.47 ng/ml.

For orientation: EC50 means the concentration giving half of the maximal effect. Lower therefore signals an effect from little substance.
